The results in this text go back to patent publication US20120164688A1.

The target in assay [1] is rat NGF (rNGF) (rat) (UniProt P25427). In words: BIACORE SPR. In general terms: In SPR one partner is held on a chip, and binding of the other changes the refractive index at the surface.
Assay [2] addresses mouse NGF (mNGF) (mouse) (UniProt P01139). The assay is described as follows: BIACORE SPR.
The target of assay [3] is human nerve growth factor (NGF) (human) (UniProt P01138). In words: BIACORE SPR.
The target of assay [4] is human neurotrophin-3 (NT-3) (human) (UniProt P20783). The assay is described as follows: BIACORE; 20 nM NT-3 + 500 nM agent, % NT-3 bound to TrkB-hFc chip.
Assay [5] has the same target. In words: BIACORE SPR; mAb captured, 20 nM NT-3.
For assay [6], the target named is human nerve growth factor (NGF) (human) (UniProt P01138). In words: cell-based or functional assay.
Assay [7] concerns the target human neurotrophin-3 (NT-3) (human) (UniProt P20783). The assay is described as follows: cell-based or functional assay.
For assay [8], the target named is human nerve growth factor (NGF) (human) (UniProt P01138). In words: BIACORE SPR; mAb captured, human NGF injected.
Assay [9] addresses rat NGF (rNGF) (rat) (UniProt P25427). In words: BIACORE SPR; purified mAb.
Assay [10] addresses mouse NGF (mNGF) (mouse) (UniProt P01139). In words: BIACORE SPR; purified mAb.
Assay [11] deals with human nerve growth factor (NGF) (human) (UniProt P01138). The assay is described as follows: BIACORE SPR; purified mAb.
For assay [12] the target is unchanged. In words: BIACORE blocking; % free NGF bound to p75-hFc chip.
The target is the same in assay [13]. The assay is described as follows: BIACORE SPR; complex dissociation half-life.
Assay [14] concerns the target human neurotrophin-3 (NT-3) (human) (UniProt P20783). In words: BIACORE; 20 nM NT-3 + 500 nM agent, % NT-3 bound to TrkC-hFc chip.
Assay [15] addresses human nerve growth factor (NGF) (human) (UniProt P01138). In words: BIACORE blocking; % free NGF bound to TrkA-hFc chip.
Assay [16] concerns the target human neurotrophin-3 (NT-3) (human) (UniProt P20783). In words: BIACORE SPR; NT-3 1.25 nM to 40 nM.
For assay [17] the target is unchanged. In words: BIACORE; 20 nM NT-3 + 500 nM agent, % NT-3 bound to p75-hFc chip.
The target is the same in assay [18]. In words: BIACORE; 20 nM NT-3 + 500 nM agent, % NT-3 bound to TrkA-hFc chip.
The target of assay [19] is human nerve growth factor (NGF) (human) (UniProt P01138). In words: BIACORE SPR; mAb captured, 20 nM NGF.
Assay [20] concerns the target human neurotrophin-3 (NT-3) (human) (UniProt P20783). In words: BIACORE; 20 nM NT-3 + 500 nM agent, % NT-3 bound to p75-hFc chip (reference).
The target is the same in assay [21]. The assay is described as follows: BIACORE; 20 nM NT-3 + 500 nM agent, % NT-3 bound to TrkC-hFc chip (reference).
For assay [22] the target is unchanged. In words: BIACORE; 20 nM NT-3 + 500 nM agent, % NT-3 bound to TrkA-hFc chip (reference).
The target is the same in assay [23]. In words: BIACORE; 20 nM NT-3 + 500 nM agent, % NT-3 bound to TrkB-hFc chip (reference).
The target in assay [24] is human nerve growth factor (NGF) (human) (UniProt P01138). The assay is described as follows: BIACORE blocking; negative control, % free NGF bound to p75-hFc chip.
Assay [25] has the same target. In words: BIACORE blocking; negative control, % free NGF bound to TrkA-hFc chip.

human nerve growth factor (NGF) (human), sequence (P01138 122-241 limits assumed): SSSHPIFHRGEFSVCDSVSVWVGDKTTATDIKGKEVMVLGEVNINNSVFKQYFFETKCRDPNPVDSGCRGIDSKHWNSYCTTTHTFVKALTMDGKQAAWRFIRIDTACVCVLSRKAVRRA
human neurotrophin-3 (NT-3) (human), sequence (P20783 139-257 limits assumed): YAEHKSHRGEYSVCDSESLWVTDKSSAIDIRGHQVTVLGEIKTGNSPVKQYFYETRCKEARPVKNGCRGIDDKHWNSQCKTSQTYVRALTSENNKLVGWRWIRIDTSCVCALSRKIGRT
rat NGF (rNGF) (rat), sequence (P25427 122-241 limits assumed): as the sequence (P01138 122-241 limits assumed) above, with S3T, I6V, R9M, M37T, D60A, D65E, M92T, G94D, V117A, A120G counted along it
mouse NGF (mNGF) (mouse), sequence (P01139 122-241 limits assumed): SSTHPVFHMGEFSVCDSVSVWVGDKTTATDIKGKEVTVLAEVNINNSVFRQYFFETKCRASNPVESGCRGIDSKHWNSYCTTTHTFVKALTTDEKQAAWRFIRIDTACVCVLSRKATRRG

“humanized anti-human NGF monoclonal antibody E3 ("RN624") (tanezumab; CAS Registry No. 880266-57-9)”: the Kd in assay [1] turned out to be 1.5 pM; in assay [2], 1.4 pM; in assay [3], 1.25 pM; in assay [5], 1.1 nM; in assay [8], 1.3 pM; in assay [9] it was 1.51 pM. In addition, the Kd in assay [10] turned out to be 1.4 pM; in assay [11], 1.25 pM; in assay [16], 1.1 nM; in [19], 1.3 pM. For the same substance, the % binding in assay [4] is 8%; in [14], 8%; in assay [17] it was 19%; in assay [18], 7%. This substance gave an IC50 (pM), PC12 SRE-luciferase in [6] of 4.9 pM. The same substance gave an MG87 IC50 in assay [6] of less than 0.186 nM. The PC12 IC50 in [6] worked out at 0.021 nM. In [7], the IC50, HEK293-TrkC SRE-luciferase lay within 150 to 200 nM. In [7], this substance came in with an IC50, PC12 SRE-luciferase with 75 nM NT-3 of 105 nM. In addition, the t1/2 in assay [11] and in assay [13] was 35 h throughout. The same substance registered a % Binding p75-hFc in [12] of 16%. In assay [15], this substance had a % Binding TrkA-hFc of 10%.
Consider “IgG1 control (AVASTIN®; Genentech, CA) (antibody)”, for which the % binding in assay [20], in [21], in assay [22] and in assay [23] was 100% throughout. Also, the % Binding p75-hFc in assay [24] is 116%. The substance also came in with a % Binding TrkA-hFc in assay [25] of 116%.

By Kd is commonly meant the concentration at which binding is half-saturated.
